Measured values: patent US6602659

Molecular target: human ST receptor protein (human) (UniProt P25092)
Assay: receptor binding on colorectal tumor samples (local and metastasized); method and ligand not described

Sequence of UniProt P25092 (P25092 other isoform, or with tags, fused parts or gaps limits assumed): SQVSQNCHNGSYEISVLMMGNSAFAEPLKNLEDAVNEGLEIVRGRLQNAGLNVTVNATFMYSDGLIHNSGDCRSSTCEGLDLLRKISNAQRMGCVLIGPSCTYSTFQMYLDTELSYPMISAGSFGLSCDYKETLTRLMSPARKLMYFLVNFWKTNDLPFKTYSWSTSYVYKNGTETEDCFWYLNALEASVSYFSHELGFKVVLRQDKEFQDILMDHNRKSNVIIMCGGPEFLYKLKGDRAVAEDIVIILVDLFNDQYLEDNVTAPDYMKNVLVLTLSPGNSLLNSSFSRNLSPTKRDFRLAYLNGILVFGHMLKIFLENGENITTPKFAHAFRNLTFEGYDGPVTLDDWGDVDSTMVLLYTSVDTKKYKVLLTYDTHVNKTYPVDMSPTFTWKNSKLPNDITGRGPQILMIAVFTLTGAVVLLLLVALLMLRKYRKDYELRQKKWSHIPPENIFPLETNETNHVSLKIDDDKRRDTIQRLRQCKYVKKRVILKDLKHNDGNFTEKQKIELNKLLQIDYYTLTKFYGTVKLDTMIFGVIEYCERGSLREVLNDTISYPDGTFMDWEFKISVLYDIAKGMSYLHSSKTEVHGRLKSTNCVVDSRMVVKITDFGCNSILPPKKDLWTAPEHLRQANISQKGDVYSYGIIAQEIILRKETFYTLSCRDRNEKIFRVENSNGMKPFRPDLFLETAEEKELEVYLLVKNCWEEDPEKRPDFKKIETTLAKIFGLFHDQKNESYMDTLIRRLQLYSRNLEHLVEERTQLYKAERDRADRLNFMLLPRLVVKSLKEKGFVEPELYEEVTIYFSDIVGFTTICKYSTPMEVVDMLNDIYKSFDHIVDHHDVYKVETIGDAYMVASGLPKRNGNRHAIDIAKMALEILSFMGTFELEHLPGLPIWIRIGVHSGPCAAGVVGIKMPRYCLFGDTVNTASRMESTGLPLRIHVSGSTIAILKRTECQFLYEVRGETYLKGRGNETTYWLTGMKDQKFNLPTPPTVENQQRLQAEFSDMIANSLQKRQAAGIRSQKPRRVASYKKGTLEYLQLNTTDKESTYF

Substance: heat-stable toxin (ST) (peptide)
- affinity: < 1e-07
